From paper PMC6332680 come the findings set out here.

Experiment [1] has as its target E. coli ribose-phosphate pyrophosphokinase (EcKPRS) (E. coli (strain K12)). In words: SEC; size exclusion chromatography, data not shown. On the technique in general: Size exclusion chromatography separates by hydrodynamic size, large species first.
The target is the same in experiment [2]. The experiment in a line: crystal structure; 2.22 Å, space group C222_(1), three molecules in the asymmetric unit; hexamer from 3 molecules of the asymmetric unit and 3 symmetry related molecules; crystallised with 0.2 M magnesium chloride, 0.1 M HEPES pH 7.5, 30% PEG 400, 1 mM ADP, 291 K.

As usually defined, the stoichiometry N is a count of units in the complex or per binding partner. Take “E. coli ribose-phosphate pyrophosphokinase (EcKPRS) (enzyme)”: the stoichiometry N in experiment [1] and in experiment [2] was 6 each time.
